Molecular target: T1, human FSH (follicle stimulating hormone) (human, UniProt P01215 25-116; P01225 19-129)
T1 construct: also called purified human FSH; human FSH in PDB ID 4AY9
Test: thermal shift assay (Sypro-Orange), antibody 1.5 µg/µL with or without human FSH 0.5 µg/µL
Procedure: Next, 215 different anti-FSH antibody formulations comprising different combinations of salt, detergent and sugars were tested for thermal stability. The thermal shift assay used a fluorescent reporter, Sypro-Orange (Protein Thermal Shift Dye Kit, ThermoFisher, Catalog #4461146), to detect hydrophobic domains that are exposed following the heat-induced unfolding of globular proteins. anti-FSH antibodies (1.5 μg/μL), either in a test formulation or in PBS, were incubated with or without human FSH (0.5 μg/μL) at room temperature for 30 minutes, with fluorescence captured sequentially at 0.3° C. increments using a StepOne Plus Thermocycler (Applied Biosystems). Tm was calculated based on the inflection point of the melt curve, and thermal shift was derived from ΔTₘ=TₘA−TₘB.
This testing yielded an anti-FSH antibody formulation comprising a stock solution of 2 mg/mL in 20 mM phosphate, 0.001% (v/v) Tween-20, 1 mM NaCl, and 260 mM sucrose (pH=6.58). […] The binding of formulated anti-FSH antibodies to purified human FSH was tested. A ΔTₘ of 3.1° C. of the Fab, and not the Fc region, established greater thermal stability due to FSH binding (FIG. 8C).

T1 sequence (P01215 25-116, chain 1 of 2): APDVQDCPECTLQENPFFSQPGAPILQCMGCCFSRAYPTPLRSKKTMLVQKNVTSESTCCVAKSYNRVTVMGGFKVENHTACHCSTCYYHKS
T1 sequence (P01225 19-129, chain 2 of 2): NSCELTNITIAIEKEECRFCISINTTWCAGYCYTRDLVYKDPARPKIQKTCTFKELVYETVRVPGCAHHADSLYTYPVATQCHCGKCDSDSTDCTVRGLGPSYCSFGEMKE

B1: humanized monoclonal anti-FSH antibody Hu6 (antibody, V domains shown)
VH: QVQLQESGPGLVKPSQTLSLTCTVSGFSITSDYAWNWIRQPPGKGLEWIGSIFSSGSINYNPSLKSRVTISRDTSKNQFSLKLSSVTAADTAVYYCARGGTGTDYWGQGTLVTVSS
VL: DIQMTQSPSSLSASVGDRVTITCRASQDISNYLSWYQQKPGKAIKLLIYYTSRLHSGVPSRFSGSGSGTDYTLTISSLQPEDFATYFCQQGHTLPPTFGGGTKVEIK
notes: also called MS-Hu6; formulated anti-FSH antibodies
ΔTm of the Fab region on FSH binding: 3.1 °C

Reference: patent publication US20250243269A1 (ICAHN SCHOOL OF MEDICINE AT MOUNT SINAI, published 2025)
